Measurements published in paper PMC8983682 (Nature Communications, 2022).

Target: full-length N1-CA09-sNAp-130, membrane-anchored, C-terminal myc tag (Influenza A virus A/California/07/2009 …, UniProt C7FH46, stabilised)
Experiment: flow cytometry on cells
Details: one partner purified

B1: CD6 IgG (antibody, V domains shown)
VH: QVKLQESGGGLVQPKGSLKLSCAASGFTFNTYAMNWVRQAPGKGLEWVARIRSKSNNYATFYADSVKDRFTISRDDSQSMLYLQMHNLKTDDTAMYYCVRPSIYYYASGYLDVWGAGTTVTVSS
VL: QIVLSQSPAILSASPGEKVTMTCRTSSSVSYMHWYQQKPGSSPKPWIYATSNLASGVPFRFSGSGSGTSYSLTISRVEAEDAATYYCQQWNSNPPTFGGGTKLEIK
notes: copies: 2 + 2
binding result: binds
